Data set [1] deals with T1, CCA1 (Arabidopsis thaliana, UniProt P92973 P92973:1-608). Put plainly: EMSA; 10 fmol rCCA1 and 10 fmol probe; cold competitor 5-50x. The following applies: tags: full-length cDNA in pET300/NT-DEST, E. coli Rosetta-gami B; label: 32P. The text has this: (§1) The cDNA was cloned into pDONR221 and validated by sequencing. The resulting insert was transferred by recombination into pET300/NT-DEST expression vector (Invitrogen Corp., Carlsbad, Calif.) and expressed in Escherichia coli Rosetta-gami B competent cells (Novagen, Madison, Wis.). Recombinant CCA1 protein was purified and subjected to EMSA in 6% native polyacrylamide gels using rCCA1 (10 fmoles) and ³²P-labeled double-stranded oligonucleotides (10 fmoles, Table 5). The cold probe (Cp) concentrations were 0 (-), 50 (5×), 100 (10×), 200 (20×), and 500 (50×) fmoles, respectively, according to a published protocol available at http://www.natureprotocols.com/2009/01/08/the_electrophoretic_mobility_s_{—}1.php.
T1 sequence (P92973 whole entry, one chain of several): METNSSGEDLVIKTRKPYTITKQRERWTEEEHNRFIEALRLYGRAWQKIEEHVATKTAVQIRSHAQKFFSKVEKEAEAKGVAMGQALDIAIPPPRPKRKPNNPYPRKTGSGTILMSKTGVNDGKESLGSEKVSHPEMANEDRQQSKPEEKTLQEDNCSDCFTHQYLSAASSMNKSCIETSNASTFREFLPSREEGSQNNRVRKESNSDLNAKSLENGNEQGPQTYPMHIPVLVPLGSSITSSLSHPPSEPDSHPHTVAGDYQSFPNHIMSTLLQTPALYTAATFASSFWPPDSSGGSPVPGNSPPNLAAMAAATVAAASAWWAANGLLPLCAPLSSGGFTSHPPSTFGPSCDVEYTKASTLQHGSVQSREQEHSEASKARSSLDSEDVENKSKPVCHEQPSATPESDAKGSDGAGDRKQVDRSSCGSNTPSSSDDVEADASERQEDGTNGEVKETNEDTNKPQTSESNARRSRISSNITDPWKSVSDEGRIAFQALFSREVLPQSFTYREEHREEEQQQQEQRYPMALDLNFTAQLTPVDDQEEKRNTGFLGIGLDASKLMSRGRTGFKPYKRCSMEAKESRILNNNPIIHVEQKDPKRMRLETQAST
(In general: Mobility shift assays separate free from complexed probe on a gel.)

Data set [2] concerns the target T1, CCA1. Put plainly: EMSA; 10 fmol rCCA1 and 10 fmol probe; cold competitor 5-50x; text prints PORE for PORB. The following applies: tags: full-length cDNA in pET300/NT-DEST, E. coli Rosetta-gami B; label: 32P.
Text: as §1

B1: TOC1 promoter EE oligo (dsDNA)
DNA 1: ACACAAAAAAAATATCTAATCACAG
DNA 2: CTGTGATTAGATATTTTTTTTGTGT
B1: in the data set with CCA1 [1], the binding result is listed as “binds”.

B2: DPE1 promoter EE oligo (dsDNA)
DNA 1: AGAGCAACAAAATATCTCGACTGTT
DNA 2: AACAGTCGAGATATTTTGTTGCTCT
For the molecule B2, in the data set with CCA1 [1], the binding result is recorded as “binds”.

B3: PORB promoter EE oligo (dsDNA)
DNA 1: ATTAAAATAAAATATCTAAGGAGAA
DNA 2: TTCTCCTTAGATATTTTATTTTAAT
For B3, the binding result in the data set with CCA1 [2] is given as “binds”.

B4: GWD3 promoter EE oligo (dsDNA)
DNA 1: CACAAACAAAAAAATCTCTTATCAC
DNA 2: GTGATAAGAGATTTTTTTGTTTGTG
As for B4, the binding result with CCA1 [1] is recorded as “binds”.

B5: PORA promoter EE oligo (dsDNA)
DNA 1: TATACATTAAAATATCTACTGACAG
DNA 2: CTGTCAGTAGATATTTTAATGTATA
Turning to B5, in the data set with CCA1 [1], the binding result is “binds”.

The values above are taken from US20110271397, “MOLECULAR CLOCK MECHANISM OF HYBRID VIGOR” (published 2011).
